Details: Rhodobacter capsulatus (strain ATCC BAA-309 / NBRC 16581 / SB1003); pH 7.5; 20 °C; GdnHCl; CD; Tris-HCl 20 mM; NaCl 40 mM; whole UniProt chain shown

B1: Cytochrome c2 wild type, P00094 (protein)
chain: MKISLTAATVAALVLAAPAFAGDAAKGEKEFNKCKTCHSIIAPDGTEIVKGAKTGPNLYGVVGRTAGTYPEFKYKDSIVALGASGFAWTEEDIATYVKDPGAFLKEKLDDKKAKTGMAFKLAKGGEDVAAYLASVVK
  denaturant m value: 1.65 kcal/mol/M
  denaturant midpoint (higher = more stable): 4.51 M
  unfolding free energy: 7.45 kcal/mol

Reference: FireProtDB (doi:10.1021/bi00231a002)
